Results reported in US20260152557A1 (Adimab, published 2026).

Legend:
[1] = target: T1, human CD3εδ-Fc heterodimer (Hu CD3ε Fc / CD3δ Fc-HIS) (human, UniProt P04234 22-100); test: SPR (Biacore 8K), yeast-produced Fab, monovalent, pH 7.4
T1 construct: range 22-100; Produced in HEK 293 cells with a heterologous signal peptide; heterodimer purified by Ni Sepharose and Mono Q; also called Hu CD3εδ Fc heterodimer; CD3εδ Fc-HIS heterodimer; not shown: Fc-HIS part of CD3δ Fc-HIS
Description: (§1) Anti-CD3 antibodies (Antibody Nos. 1-13) were produced as human IgG1 antibodies in yeast or Chinese hamster ovary (CHO) cells, and Fab fragments were generated from the IgG1 antibodies by papain digestion and purified IgGs produced in yeast were aglycosylated. CHO produced IgGs had standard CH2 glycosylation. […] Monovalent binding affinity to human or cynomolgus CD3εδ-Fc at pH 7.4 and pH 6.0 were measured via surface plasmon resonance (SPR) using the BIACORE® 8K (Cytiva, previously GE Healthcare Life Sciences) system and analyzed using BIACORE® Evaluation Software.
(§2) BIACORE® KD measurements (surface plasmon resonance; SPR). BIACORE® affinity measurements were performed generally as previously described. Briefly, human CD3εδ-Fc heterodimer produced as described above was immobilized to a NiNTA sensor chip in a BIACORE® 8K (Cytiva, previously GE Healthcare Life Sciences) to a response level of ˜500 RUs. […] The sensor chip was doubly regenerated between cycles using 0.35 M EDTA and 0.1 M NaOH. The resulting data were double reference subtracted and fit to a 1:1 binding model using BIACORE® Evaluation Software.

[2] = target: T1, human CD3εδ-Fc heterodimer (Hu CD3ε Fc …); test: SPR (Biacore 8K), yeast-produced Fab, monovalent, pH 6.0
Description: as §1, §2

[3] = target: T1, human CD3εδ-Fc heterodimer (Hu CD3ε Fc …); test: BLI (Octet), CD3εδ-Fc on AHC sensor, CHO-derived Fab 100 nM in solution, pH 6.0
[4] = target: T2, cynomolgus CD3εδ-Fc heterodimer (Cy CD3ε Fc / CD3δ Fc-HIS) (cynomolgus, UniProt Q95LI8 22-100); test: SPR (Biacore 8K), CHO-produced Fab, monovalent, pH 7.4
T2 construct: range 22-100; Produced in HEK 293 cells; also called Cy CD3εδ Fc heterodimer; not shown: Fc-HIS part of CD3δ Fc-HIS
T2 sequence (chain, as listed by the source mutant, form in doubt, chain 1 of 2): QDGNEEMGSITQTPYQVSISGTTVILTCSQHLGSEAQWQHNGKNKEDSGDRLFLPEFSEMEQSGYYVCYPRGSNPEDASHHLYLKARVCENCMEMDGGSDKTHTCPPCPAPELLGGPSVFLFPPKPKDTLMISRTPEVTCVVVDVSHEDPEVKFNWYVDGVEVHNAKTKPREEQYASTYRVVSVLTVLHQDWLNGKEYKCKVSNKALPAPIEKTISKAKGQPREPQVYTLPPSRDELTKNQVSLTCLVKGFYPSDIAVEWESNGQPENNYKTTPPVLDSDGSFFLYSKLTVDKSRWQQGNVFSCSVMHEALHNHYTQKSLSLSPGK
T2 sequence (Q95LI8 22-100, stated change not applied, form in doubt, chain 2 of 2): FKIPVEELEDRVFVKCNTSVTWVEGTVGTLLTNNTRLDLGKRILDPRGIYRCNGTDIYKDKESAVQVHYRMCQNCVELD
Description: as §1, §2

[5] = target: T1, human CD3εδ-Fc heterodimer (Hu CD3ε Fc …); test: as above
Description: as §1, §2

[6] = target: T2, cynomolgus CD3εδ-Fc heterodimer (Cy …); test: SPR (Biacore 8K), CHO-produced Fab, monovalent, pH 6.0
Description: as §1, §2

[7] = target: T1, human CD3εδ-Fc heterodimer (Hu CD3ε Fc …); test: as above
Description: as §1, §2

[8] = target: T1, human CD3εδ-Fc heterodimer (Hu CD3ε Fc …); test: BLI (Octet), CD3εδ-Fc on AHC sensor, CHO-derived Fab 100 nM in solution, pH 7.4

T1 sequence (chain, as listed by the source mutant, form in doubt, chain 1 of 2): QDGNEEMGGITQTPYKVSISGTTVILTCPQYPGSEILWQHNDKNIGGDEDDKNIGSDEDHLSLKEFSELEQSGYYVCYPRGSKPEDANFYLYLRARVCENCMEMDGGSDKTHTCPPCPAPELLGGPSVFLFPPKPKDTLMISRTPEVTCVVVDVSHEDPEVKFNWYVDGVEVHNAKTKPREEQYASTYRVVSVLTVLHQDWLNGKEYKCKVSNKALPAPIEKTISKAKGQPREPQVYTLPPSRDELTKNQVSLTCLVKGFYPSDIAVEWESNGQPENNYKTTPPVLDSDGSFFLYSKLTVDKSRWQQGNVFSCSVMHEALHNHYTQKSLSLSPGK
T1 sequence (P04234 22-100, stated change not applied, form in doubt, chain 2 of 2): as the sequence (Q95LI8 22-100, stated change not applied, form in doubt, chain 2 of 2) above, with V5I, K15N, V20I, T32S, N33D, N34I, A64T, N74S counted along it

| Binder | Kd [1] [nM] | Kd [2] [nM] | Kd [3] [nM] | Kd [4] [nM] | Kd [5] [nM] | Kd [6] [nM] | Kd [7] [nM] | Kd [8] [nM] |
| --- | --- | --- | --- | --- | --- | --- | --- | --- |
| Fab of ADI-26906 (Antibody No. 1) (Fab, V domains shown, Fab made by papain digestion of the human IgG1 (yeast- or CHO-produced); also called Antibody No. 1 Fab; ADI-26906 Fab) VH: QVQLVQSGAEVKKPGASVKVSCKASGFNIKDYYMHWVRQAPGQRLEWMGWIDLENANTIYDAKFQGRVTITRDTSASTAYMELSSLRSEDTAVYYCARDAYGRYFYDVWGQGTLVTVSS VL: DIVMTQSPDSLAVSLGERATINCKSSQSLLNARTGKNYLAWYQQKPGQPPKLLIYWASTRESGVPDRFSGSGSGTDFTLTISSLQAEDVAVYYCKQSYSRRTFGGGTKVEIK | 2.4 | 1.9 | 5.81 | 1.09 | 1.09 | 1.9 | 1.25 | 6.03 |
| Fab of ADI-74965 (Antibody No. 3) (Fab, V domains shown, Fab made by papain digestion of the human IgG1 (yeast- or CHO-produced); also called Antibody No. 3 Fab; ADI-74965 Fab) VH: QVQLVQSGAEVKKPGASVKVSCKASGFNIKDYYMHWVRQAPGQRLEWMGWIDLENANTIYDAKFQGRVTITRDTSASTAYMELSSLRSEDTAVYYCARDAYHRYFYDVWGQGTLVTVSS VL: DIVMTQSPDSLAVSLGERATINCKSSQSLLNARTGHNYLAWYQQKPGQPPKLLIYWASTRESGVPDRFSGSGSGTDFTLTISSLQAEDVAVYYCKQSHSHRTFGGGTKVEIK |  | 10.5 | 24.4 |  |  | 11.3 | 10.9 | 142 |
| Fab of ADI-74967 (Antibody No. 5) (Fab, V domains shown, Fab made by papain digestion of the human IgG1 (yeast- or CHO-produced); also called Antibody No. 5 Fab; ADI-74967 Fab) VH: QVQLVQSGAEVKKPGASVKVSCKASGFNIKDYYMHWVRQAPGQRLEWMGWIDLENANTIYDAKFQGRVTITRDTSASTAYMELSSLRSEDTAVYYCARDHYHRYFYDVWGQGTLVTVSS VL: GIVMTQSPDSLAVSLGERATINCKSSQSLLNARTGKNYLAWYQQKPGQPPKLLIYWASTRESGVPDRFSGSGSGTDFTLTISSLQAEDVAVYYCKQSHSHRTFGGGTKVEIK |  | 8.45 | 24.9 | 73.7 | 55.5 | 11.6 | 8.16 |  |
| Fab of ADI-74968 (Antibody No. 6) (Fab, V domains shown, Fab made by papain digestion of the human IgG1 (yeast- or CHO-produced); also called Antibody No. 6 Fab; ADI-74968 Fab) VH: QVQLVQSGAEVKKPGASVKVSCKASGFNIKDYYMHWVRQAPGQRLEWMGWIDLENANTIYDAKFQGRVTITRDTSASTAYMELSSLRSEDTAVYYCARDAYHRYFYDVWGQGTLVTVSS VL: DIVMTQSPDSLAVSLGERATINCKSSQSLLNARTGHNYLAWYQQKPGQPPKLLIYWASTRESGVPDRFSGSGSGTDFTLTISSLQAEDVAVYYCKQSYSHRTFGGGTKVEIK |  | 6.07 | 14.8 | 46.5 | 47.5 | 6.18 | 6.37 | 69.3 |
| Fab of ADI-48587 (Antibody No. 2) (Fab, V domains shown, Fab made by papain digestion of the human IgG1 (yeast- or CHO-produced); also called Antibody No. 2 Fab; ADI-48587 Fab) VH: QVQLVQSGAEVKKPGASVKVSCKASGFNIKDYYMHWVRQAPGQRLEWMGWIDLENANTIYDAKFQGRVTITRDTSASTAYMELSSLRSEDTAVYYCARDHYHRYFYDVWGQGTLVTVSS VL: DIVMTQSPDSLAVSLGERATINCKSSQSLLNARTGHNYLAWYQQKPGQPPKLLIYWASTRESGVPDRFSGSGSGTDFTLTISSLQAEDVAVYYCKQSHSHRTFGGGTKVEIK |  | 15.7 | 65.9 | 62.7 |  | 25.4 | 43.2 |  |
